Data: a protein production outcome set (Wang et al. 2014)

Experiment: label from the status in PepcDB records

Row | Sequence | protein production
1 | MSLNRHFTVSVFIVCKDKVLLHLHKKAKKMLPLGGHIEVNELPEEACIREAKEEAGLNVTLYNPIDINLKKSCDLSGEKLLINPIHTILGDVSPNHSHIDFVYYATTTSFETSPEIGESKILKWYSKEDLKNAHNIQENILVMATEALDLLEGHHHHHH | not failed
2 | MPRITTDTIIADVLRIDRGTIPIFLNNGLHCLGCPSAQGESIEEACALHGIDAQKLVDELNEYLKSKGLLDLEHHHHHH | not failed
3 | MGINEIIMYIMMFFMLIAAVDRILSQFGGSARFLGKFGKSIEGSGGQFEEGFMAMGALGLAMVGMTALAPVLAHVLGPVIIPVYEMLGANPSMFAGTLLACDMGGFFLAKELAGGDVAAWLYSGLILGSMMGPTIVFSIPVALGIIEPSDRRYLALGVLAGIVTIPIGCIAGGVIAMYSGVQINGQPVEFTFALILMNMIPVLIVAVLVALGLKFIPEKMINGFQIFAKFLVALITIGLAAAVVKFLLGWELIPGLDPIFMAPGDKPGEVMRAIEVIGSISCVLLGAYPMVLLLTRWFEKPLMNVGKLLNVNNIAAAGMVATLANNIPMFGMMKQMDTRGKVINCAFAVSAAFALGDHLGFAAANMNAMIFPMIVGKLIGGVTAIGVAMMLVPKDDAAQVKTEAEAQS | failed
4 | MASYTLRQLKYFVTTVECGSVAEASRKLYIAQPSISTAVKGLEESFGVQLFIRHHAQGVSLTPAGARFYRKAQELLRMAHEFEQNALADNDVIAGQIDIGCFETVAPLYLPGLIAGFRQAYPGVEIRIRDGEQQELVQGLTSGRFDLAFLYEHDLDSTIETEPLMPPQRPHALLPEGHRFAGQAQVSLRDLCLEPMILLDVQPSRTYFVSLFEELGLTPNIAFSSPSIEMVRGMVGQGFGFSLLVTRPHSECTYDGKKVVMVDLAEPVSTSGLAAAWLKRAQLTKPARLFVDYCREQLGKLAERRH | not failed
5 | MGSSHHHHHHSSGLVPRGSTETSQQLQLRVQGKEKHQTLEVSLSRDSPLKTLMSHYEEAMGLSGRKLSFFFDGTKLSGRELPADLGMESGDLIEVWG | not failed
6 | MTPQNTIARELLFLALLSTLWAASYTFIKIGVETIPPLTFIAARTLIAGLLLLVVIRLRGLRLPRDPATWRLFFVQACINSVLPFTLIAWAEQSIDAGLAVILNATTPIFTFLLTALVIRHETVSGRKLFGTIAGMTGVCLIIGVEALGGAGEAIWSQLAVLTAAFSYACAAIFSKNFKGLDPVMPAAGSLICGAVLLLPVSLIVDRPWTLSPSAASLTALVCLSVFSTALAFMIYFRLMQTLGSVGTTSQAYLRVPVGVAIGMVFLGEVPTSAMWVGLVCVIAGVLAMTLPSRRRPATQGG | failed
7 | LETSWIKPGQASWEWWNDAAPYGPDVNFVSGYNLETYKYYIDFASKYGIRYIIMDEGWAKSTRDPYTPNAKVDVHELIRYAEKKNVGIVLWLTWLTVENNMDLFKTFSEWGVKGVKIDFMDRSDQWMMNFYERVAAEAAKYKLFVDFHGSVSPKGLEYKYPNVLSYEGVRGMEQMGGATPDNSIFMPFMRNAVGAMDYTPGAM | failed
8 | MKLQGSNILGQEQIDLLTTRGLNFVWFPKQLETIYRFQYQNGAAYEFRYRAPIILILYLFLSFGIYQVLPTEQVLSWLSYYSWVGIIVLIAWILSFIKKLNQWFDYYVGIGSSAAVAITFILINVLENGQDNVLFHAAMMYAIVIIYGAVGMRFYTAIIAGWVGGLIGILVSTYLNGDIDWTFLNRTYTFSSFLGMTLAYATDRQHRENYLQNCMIELNRIELMQQAQQLSLLSQQDALTGLANRRYLDETLDNEWRRALRHETPLTIMMVDIDFFKPYNDSLGHLKGDQCLKDIATAISSIAARSGDLVARYGGEEFLLLFPMTNAQQAKIQAERLMNAIKKIAIVHPCSSVSPYVTISVGVATTIPRLNDSISAFVSRADHALYQAKTNGRNQYQIALNEEQIVDLT | failed
9 | ISSDEALKLIKEQPQLFDEYHDGFRSQVQAWPENPVDVFVDQIRYRCMKPVNAPGGLPGLKDSKEIVIADMGCGEAQLALEINNFFKNYNKKAKKYLKRRHKVHSFDLKKANERITVADIRNVPLPDESCTIVVFCLALMGTNFLDFIKEAYRILAPRGELWIAEIKSRFSDGKGNEFVDALKLMGFFHKKTFDENKMFTRFEFFKPPAEIIEERRQ | failed
10 | MGYFYVLLAAFLWGLIGPLSRMAFQEGLTPLTVAFYRALLSWIFFLAHAARTGGLRVAPRDLPVFPLFGLLGVALFYGAYQLAVLYGGAALASVLLYTAPAWVALLSWAFLREPPTARSWGAVALTLLGVGLLGLGGGSEVRFGVRAFLFGLASGFFYALHYLLGKLYLGRYATPTFFAYALPVAALALAPWAEFGPLTPRALGALLALSLFSTYGAYLAFYAGLRRLPATVASVVATLEPVVAVVLAYLLFGEVLSPLGYFGALLVILAVLLAVRR | failed
11 | MAGMDNLIAIAAAMLYLLSIATIVPGLVNQTGIRAKTVFISAAIALLFHGWLLSDLILHSSGQNLSILNVASLISFIISLAMSLAMFKTRLWFLLPVAYSFSAINLSAATFLPGTFITHLESDPKLLLHISLALFSYSTLSIGALYALQLAWLDHKLKSKKVFSINPNLPPLLLVERQLFKIILIGNLLLTGTLLTGFIFVQDMFAQGKAHKGILSFVAWIVYSILLWGHYRKGWRGKKVTWFAVAGATLLTLAYFGSRFVREIILR | failed
12 | MRRLLTAVLISTLGAASLVRADGPAPFSKVFEDISADQPGCAAGVMRGGKVIWSAGYGAADLTTGAAIQADTLFNLASVSKQFTGFAILQLQAQGRLSLEDPVRRFLPELPAYAQGIRIRHLLHHTSGLQDYMLLAELAGIPLSQRFTQQQALDLLVRQNSLMFPPGSEFSYSNSGYVLLSSIVERASGLSLKHYSRANIFLPLGMDHSSIVDQYPVQLPNLARGYEPGGQGKAQVAVDARWEQTGDGQVHSNVADLMRWLRNLSTGRVGGKALVENMRQTEPLNDGDPGYYGMGLANRSYRGLQELSHSGGWAGFNTDVAWYPKLDVATVVLCNSDDGRASERGRQLLDTLLGSPAPSGEADIPPPPPSIRALPKASLKTLVAGTYLDDGGHQLQLRRSGKGWSLETFPDVLPLTRQSDEVLVADNDGTPIYLAATSGGRIALNNPASTYALAPPWKPDDIRPYVGLYTLETSPGQLKVHARQGKLYVRIGLYTYPMQPLTAERFSAGELGVLSFAEQGAVLTSSVARNLRFGKVFAP | failed
13 | MTSKHFISKKEAKRIWEAMARYGIDITGESLEVAAQKSASAYYIGGKPMVFQAGDLIPSVYLLNYRNPSRNIVTVDEGAEPHILNGSDLFAPGIVSMDDSIRKGDMIFVKSSKGYFIAVGMAEMDAGEVMATKRGKAARIIHFPGDELIRAFP | not failed
14 | MELIRFSISIPSKLLEKFDQIIEEIGYENRSEAIRDLIRDFIIRHEWEVGNEEVAGTITIVYNHDEGDVVKALLDLQHEYLDEIISSLHVHMDEHNCLEVIVVKGEAKKIKMIADKLLSLKGVKHGKLVMTSTGKELV | not failed
